Article PMC9352680, “A comprehensive thermodynamic model for RNA binding by the Saccharomyces cerevisiae Pumilio protein PUF4”

T1: PUF4 RNA-binding domain (Saccharomyces cerevisiae, UniProt P25339 537-888)
T1 sequence: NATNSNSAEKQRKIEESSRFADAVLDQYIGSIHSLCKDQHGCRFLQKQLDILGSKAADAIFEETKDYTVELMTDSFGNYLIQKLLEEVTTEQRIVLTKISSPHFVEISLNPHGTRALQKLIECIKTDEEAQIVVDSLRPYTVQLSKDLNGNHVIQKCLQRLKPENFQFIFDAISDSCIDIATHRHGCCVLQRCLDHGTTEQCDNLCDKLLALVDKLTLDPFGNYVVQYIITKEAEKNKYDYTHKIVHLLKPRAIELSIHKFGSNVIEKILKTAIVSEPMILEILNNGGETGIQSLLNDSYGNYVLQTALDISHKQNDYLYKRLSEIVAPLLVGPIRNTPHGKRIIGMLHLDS


biological target: T1, PUF4 RNA-binding domain; assay: Mg; RNA-MaP; 20 mM Na-HEPES pH 7.4, 30 mM KOAc, 0.75 mM MgCl2, 0.1% Tween-20, 5% glycerol, 0.1 mg/mL BSA, 2 mM DTT; 25 C; 0.0125-409.6 nM protein; conditions: tags: N-His6-TEV cleaved; C-SNAP kept, Cy3B-labelled; label: tethered on chip by stalled RNA polymerase

| Binder | Kd |
| --- | --- |
| ACAAACCAACACUAUUAAGACAAAC (ssRNA) [Id_ii_S3_P4E.4_K4.3_C4.2_[T-1A]_H4.3_A4.1_F4.1_T4.2_[G10A]_[T11G]] | > 2300 nM |
| ACAAACCCACACUAUUACCACAAAC (ssRNA) [Id_ii_S3_P4E.4_K4.3_C4.2_[T-1C]_H4.3_A4.1_F4.1_T4.2_[G10C]_[T11C]] | > 2300 nM |
| ACAAACUCACACUAUUAAAACAAAC (ssRNA) [Id_ii_S3_P4E.4_K4.3_C4.2_[C-2T]_[T-1C]_H4.3_A4.1_F4.1_T4.2_[G10A]_[T11A]] | > 2300 nM |
| ACAAACCGACACUAUUAUUACAAAC (ssRNA) [Id_ii_S3_P4E.4_K4.3_C4.2_[T-1G]_H4.3_A4.1_F4.1_T4.2_[G10T]] | > 2300 nM |
| ACAAACCAACACUAUUACUACAAAC (ssRNA) [Id_ii_S3_P4E.4_K4.3_C4.2_[T-1A]_H4.3_A4.1_F4.1_T4.2_[G10C]] | > 2300 nM |
| ACAAACACACACUAUUACUACAAAC (ssRNA) [Id_ii_S3_P4E.4_K4.3_C4.2_[C-2A]_[T-1C]_H4.3_A4.1_F4.1_T4.2_[G10C]] | > 2300 nM |
| ACAAACUGACACUAUUAUCACAAAC (ssRNA) [Id_ii_S3_P4E.4_K4.3_C4.2_[C-2T]_[T-1G]_H4.3_A4.1_F4.1_T4.2_[G10T]_[T11C]] | > 2300 nM |
| ACAAACCCACACUAUUAAAACAAAC (ssRNA) [Id_ii_S3_P4E.4_K4.3_C4.2_[T-1C]_H4.3_A4.1_F4.1_T4.2_[G10A]_[T11A]] | > 2300 nM |
| ACAAACAUACACUAUUAUUACAAAC (ssRNA) [Id_ii_S3_P4E.4_K4.3_C4.2_[C-2A]_H4.3_A4.1_F4.1_T4.2_[G10T]] | 600 nM |
| ACAAACACACACUAUUAGCACAAAC (ssRNA) [Id_ii_S3_P4E.4_K4.3_C4.2_[C-2A]_[T-1C]_H4.3_A4.1_F4.1_T4.2_[T11C]] | > 2300 nM |
| ACAAACUUACACUAUUAGAACAAAC (ssRNA) [Id_ii_S3_P4E.4_K4.3_C4.2_[C-2T]_H4.3_A4.1_F4.1_T4.2_[T11A]] | > 2300 nM |
| ACAAACCGACACUAUUACCACAAAC (ssRNA) [Id_ii_S3_P4E.4_K4.3_C4.2_[T-1G]_H4.3_A4.1_F4.1_T4.2_[G10C]_[T11C]] | > 2300 nM |
| ACAAACCAACACUAUUAUCACAAAC (ssRNA) [Id_ii_S3_P4E.4_K4.3_C4.2_[T-1A]_H4.3_A4.1_F4.1_T4.2_[G10T]_[T11C]] | > 2300 nM |
| ACAAACAUACACUAUUAGAACAAAC (ssRNA) [Id_ii_S3_P4E.4_K4.3_C4.2_[C-2A]_H4.3_A4.1_F4.1_T4.2_[T11A]] | 846 nM |
| ACAAACUUACACUAUUAAAACAAAC (ssRNA) [Id_ii_S3_P4E.4_K4.3_C4.2_[C-2T]_H4.3_A4.1_F4.1_T4.2_[G10A]_[T11A]] | > 2300 nM |
| ACAAACUUACACUAUUAUAACAAAC (ssRNA) [Id_ii_S3_P4E.4_K4.3_C4.2_[C-2T]_H4.3_A4.1_F4.1_T4.2_[G10T]_[T11A]] | 1640 nM |
| ACAAACCAACACUAUUAGUACAAAC (ssRNA) [Id_ii_S3_P4E.4_K4.3_C4.2_[T-1A]_H4.3_A4.1_F4.1_T4.2] | > 2300 nM |
| ACAAACGGUAUAUUAUUAGGACAAAC (ssRNA) [Id_ii_S3_P5E.3_K5.2_C5.2_[C-2G]_[T-1G]_H5.2_A5.1_F5.1_T5.2_[T11G]_[A12G]] | 28.9 nM |
| ACAAACAAACACUAUUAAGACAAAC (ssRNA) [Id_ii_S3_P4E.4_K4.3_C4.2_[C-2A]_[T-1A]_H4.3_A4.1_F4.1_T4.2_[G10A]_[T11G]] | > 2300 nM |

| Binder | Kd |
| --- | --- |
| ACAAACUGACACUAUUAACACAAAC (ssRNA) [Id_ii_S3_P4E.4_K4.3_C4.2_[C-2T]_[T-1G]_H4.3_A4.1_F4.1_T4.2_[G10A]_[T11C]] | > 2300 nM |
| ACAAACGCUAUAUUAUUAACACAAAC (ssRNA) [Id_ii_S3_P5E.3_K5.2_C5.2_[C-2G]_[T-1C]_H5.2_A5.1_F5.1_T5.2_[T11A]_[A12C]] | 812 nM |
| ACAAACACACACUAUUAACACAAAC (ssRNA) [Id_ii_S3_P4E.4_K4.3_C4.2_[C-2A]_[T-1C]_H4.3_A4.1_F4.1_T4.2_[G10A]_[T11C]] | > 2300 nM |
| ACAAACCCACACUAUUAAUACAAAC (ssRNA) [Id_ii_S3_P4E.4_K4.3_C4.2_[T-1C]_H4.3_A4.1_F4.1_T4.2_[G10A]] | > 2300 nM |
| ACAAACCGACACUAUUAUGACAAAC (ssRNA) [Id_ii_S3_P4E.4_K4.3_C4.2_[T-1G]_H4.3_A4.1_F4.1_T4.2_[G10T]_[T11G]] | > 2300 nM |
| ACAAACAAACACUAUUAACACAAAC (ssRNA) [Id_ii_S3_P4E.4_K4.3_C4.2_[C-2A]_[T-1A]_H4.3_A4.1_F4.1_T4.2_[G10A]_[T11C]] | > 2300 nM |
| ACAAACAAACACUAUUAGCACAAAC (ssRNA) [Id_ii_S3_P4E.4_K4.3_C4.2_[C-2A]_[T-1A]_H4.3_A4.1_F4.1_T4.2_[T11C]] | > 2300 nM |
| UCUCUUUGUAUUGUUUUCUCUU (ssRNA) [Ic_S1_P5E.1_K5.1_C5.1_H5.1_A5.1_[A7G]_F5.1_[A10T]_T5.1] | 42.9 nM |
| ACAAACACACACUAUUAUUACAAAC (ssRNA) [Id_ii_S3_P4E.4_K4.3_C4.2_[C-2A]_[T-1C]_H4.3_A4.1_F4.1_T4.2_[G10T]] | > 2300 nM |
| ACAAACUCACACUAUUAUUACAAAC (ssRNA) [Id_ii_S3_P4E.4_K4.3_C4.2_[C-2T]_[T-1C]_H4.3_A4.1_F4.1_T4.2_[G10T]] | > 2300 nM |
| ACAAACAUACACUAUUAAAACAAAC (ssRNA) [Id_ii_S3_P4E.4_K4.3_C4.2_[C-2A]_H4.3_A4.1_F4.1_T4.2_[G10A]_[T11A]] | 1130 nM |
| UCUCUUUGUAUUCUUUUCUCUU (ssRNA) [Ic_S1_P5E.1_K5.1_C5.1_H5.1_A5.1_[A7C]_F5.1_[A10T]_T5.1] | 28.6 nM |
| ACAAACCGACACUAUUAAAACAAAC (ssRNA) [Id_ii_S3_P4E.4_K4.3_C4.2_[T-1G]_H4.3_A4.1_F4.1_T4.2_[G10A]_[T11A]] | > 2300 nM |
| ACAAACAUACACUAUUAAUACAAAC (ssRNA) [Id_ii_S3_P4E.4_K4.3_C4.2_[C-2A]_H4.3_A4.1_F4.1_T4.2_[G10A]] | 740 nM |
| ACAAACAUACACUAUUACCACAAAC (ssRNA) [Id_ii_S3_P4E.4_K4.3_C4.2_[C-2A]_H4.3_A4.1_F4.1_T4.2_[G10C]_[T11C]] | 740 nM |
| ACAAACCGACACUAUUAACACAAAC (ssRNA) [Id_ii_S3_P4E.4_K4.3_C4.2_[T-1G]_H4.3_A4.1_F4.1_T4.2_[G10A]_[T11C]] | > 2300 nM |
| ACAAACGAUAUAUUAUUAGGACAAAC (ssRNA) [Id_ii_S3_P5E.3_K5.2_C5.2_[C-2G]_[T-1A]_H5.2_A5.1_F5.1_T5.2_[T11G]_[A12G]] | 164 nM |
| UCUCUUUGUAUUUUUCUCUCUU (ssRNA) [Ib_S1_P5E.1_K5.1_C5.1_H5.1_A5.1_[A7T]_F5.1_[A10C]_T5.1] | 23.8 nM |
| ACAAACGCUAUAUUAUUAAUACAAAC (ssRNA) [Id_ii_S3_P5E.3_K5.2_C5.2_[C-2G]_[T-1C]_H5.2_A5.1_F5.1_T5.2_[T11A]_[A12T]] | 480 nM |

| Binder | Kd |
| --- | --- |
| ACAAACCUACACUAUUAACACAAAC (ssRNA) [Id_ii_S3_P4E.4_K4.3_C4.2_H4.3_A4.1_F4.1_T4.2_[G10A]_[T11C]] | > 2300 nM |
| UCUCUUGUUAUUAUUAUCUCUU (ssRNA) [Ib_S1_P5E.1_K5.1_C5.1_H5.1_[T1G]_[G2T]_A5.1_F5.1_T5.1] | 56.7 nM |
| UCUCUUUGUAUUCUUCUCUCUU (ssRNA) [Ib_S1_P5E.1_K5.1_C5.1_H5.1_A5.1_[A7C]_F5.1_[A10C]_T5.1] | 36.4 nM |
| ACAAACCCACACUAUUAACACAAAC (ssRNA) [Id_ii_S3_P4E.4_K4.3_C4.2_[T-1C]_H4.3_A4.1_F4.1_T4.2_[G10A]_[T11C]] | > 2300 nM |
| ACAAACAUACACUAUUAUAACAAAC (ssRNA) [Id_ii_S3_P4E.4_K4.3_C4.2_[C-2A]_H4.3_A4.1_F4.1_T4.2_[G10T]_[T11A]] | 902 nM |
| ACAAACAUACACUAUUAACACAAAC (ssRNA) [Id_ii_S3_P4E.4_K4.3_C4.2_[C-2A]_H4.3_A4.1_F4.1_T4.2_[G10A]_[T11C]] | 1470 nM |
| ACAAACCAACACUAUUAGCACAAAC (ssRNA) [Id_ii_S3_P4E.4_K4.3_C4.2_[T-1A]_H4.3_A4.1_F4.1_T4.2_[T11C]] | > 2300 nM |
| ACAAACCAACACUAUUACGACAAAC (ssRNA) [Id_ii_S3_P4E.4_K4.3_C4.2_[T-1A]_H4.3_A4.1_F4.1_T4.2_[G10C]_[T11G]] | > 2300 nM |
| ACAAACCCACACUAUUAAGACAAAC (ssRNA) [Id_ii_S3_P4E.4_K4.3_C4.2_[T-1C]_H4.3_A4.1_F4.1_T4.2_[G10A]_[T11G]] | > 2300 nM |
| ACAAACUCACACUAUUAAGACAAAC (ssRNA) [Id_ii_S3_P4E.4_K4.3_C4.2_[C-2T]_[T-1C]_H4.3_A4.1_F4.1_T4.2_[G10A]_[T11G]] | > 2300 nM |
| ACAAACAAACACUAUUAUGACAAAC (ssRNA) [Id_ii_S3_P4E.4_K4.3_C4.2_[C-2A]_[T-1A]_H4.3_A4.1_F4.1_T4.2_[G10T]_[T11G]] | > 2300 nM |
| ACAAACAAACACUAUUACCACAAAC (ssRNA) [Id_ii_S3_P4E.4_K4.3_C4.2_[C-2A]_[T-1A]_H4.3_A4.1_F4.1_T4.2_[G10C]_[T11C]] | > 2300 nM |
| ACAAACCAACACUAUUAACACAAAC (ssRNA) [Id_ii_S3_P4E.4_K4.3_C4.2_[T-1A]_H4.3_A4.1_F4.1_T4.2_[G10A]_[T11C]] | > 2300 nM |
| ACAAACUCACACUAUUAGUACAAAC (ssRNA) [Id_ii_S3_P4E.4_K4.3_C4.2_[C-2T]_[T-1C]_H4.3_A4.1_F4.1_T4.2] | > 2300 nM |
| ACAAACUAACACUAUUACGACAAAC (ssRNA) [Id_ii_S3_P4E.4_K4.3_C4.2_[C-2T]_[T-1A]_H4.3_A4.1_F4.1_T4.2_[G10C]_[T11G]] | > 2300 nM |
| ACAAACUCACACUAUUAACACAAAC (ssRNA) [Id_ii_S3_P4E.4_K4.3_C4.2_[C-2T]_[T-1C]_H4.3_A4.1_F4.1_T4.2_[G10A]_[T11C]] | > 2300 nM |
| ACAAACAGACACUAUUAGAACAAAC (ssRNA) [Id_ii_S3_P4E.4_K4.3_C4.2_[C-2A]_[T-1G]_H4.3_A4.1_F4.1_T4.2_[T11A]] | > 2300 nM |
| ACAAACGAUAUAUUAUUAGCACAAAC (ssRNA) [Id_ii_S3_P5E.3_K5.2_C5.2_[C-2G]_[T-1A]_H5.2_A5.1_F5.1_T5.2_[T11G]_[A12C]] | 164 nM |
| ACAAACCAACACUAUUAAUACAAAC (ssRNA) [Id_ii_S3_P4E.4_K4.3_C4.2_[T-1A]_H4.3_A4.1_F4.1_T4.2_[G10A]] | > 2300 nM |
